Assay results reported in publication PMC9482650, “Quantitative fragmentomics allow affinity mapping of interactomes” (Nature Communications, 2022).
Positions count from the first letter of the chain named.

What was measured:
Experiment in all cases: holdup assay
Set-up in all cases: key: below the threshold = too weak to quantify, mostly under pKd 3.1 to 4
APBA1_2, Q02410 = biological target: T1, APBA1_2, Q02410
T1 sequence (Q02410 742-832, limits assumed, looked up): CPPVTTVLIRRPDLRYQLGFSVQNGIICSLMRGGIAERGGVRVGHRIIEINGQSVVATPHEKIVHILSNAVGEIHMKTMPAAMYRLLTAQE

APBA2_2, Q99767 = biological target: T2, APBA2_2, Q99767
T2 sequence (Q99767 654-744, limits assumed, looked up): T1 sequence (Q02410 742-832, limits assumed, looked up) with R10K, R15K, P59A, H65Q, I66A, A70S, Y84F, A89G

ARHGAP21, Q5T5U3 = biological target: T3, ARHGAP21, Q5T5U3
T3 sequence (Q5T5U3 45-169, limits assumed, looked up): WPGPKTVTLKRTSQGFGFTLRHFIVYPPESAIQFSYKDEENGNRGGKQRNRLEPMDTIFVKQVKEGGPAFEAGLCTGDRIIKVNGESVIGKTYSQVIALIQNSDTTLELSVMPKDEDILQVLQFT

ARHGEF12, Q9NZN5-2 = biological target: ARHGEF12, Q9NZN5-2
ARHGEF12, Q9NZN5-2, sequence (Q9NZN5 other isoform, or with tags, fused parts or gaps): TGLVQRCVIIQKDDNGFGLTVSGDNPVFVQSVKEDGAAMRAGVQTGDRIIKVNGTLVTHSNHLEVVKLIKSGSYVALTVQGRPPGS

CASK, O14936 = biological target: CASK, O14936
CASK, O14936, sequence (O14936 487-570): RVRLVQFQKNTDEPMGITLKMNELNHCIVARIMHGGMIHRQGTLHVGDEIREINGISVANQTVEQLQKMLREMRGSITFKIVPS

DLG1_1, Q12959 = biological target: DLG1_1, Q12959
DLG2_2, Q15700 = biological target: DLG2_2, Q15700
DLG2_2, Q15700, sequence (Q15700 189-283): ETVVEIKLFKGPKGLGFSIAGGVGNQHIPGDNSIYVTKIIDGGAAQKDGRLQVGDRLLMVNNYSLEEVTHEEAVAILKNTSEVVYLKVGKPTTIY

DLG4_1, P78352 = biological target: DLG4_1, P78352
DLG4_1, P78352, sequence (P78352 62-152): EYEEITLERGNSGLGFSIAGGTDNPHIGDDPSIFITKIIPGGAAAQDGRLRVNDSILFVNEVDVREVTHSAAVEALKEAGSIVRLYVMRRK

FRMPD2_1, Q68DX3 = biological target: FRMPD2_1, Q68DX3
FRMPD2_1, Q68DX3, sequence (Q68DX3 770-861): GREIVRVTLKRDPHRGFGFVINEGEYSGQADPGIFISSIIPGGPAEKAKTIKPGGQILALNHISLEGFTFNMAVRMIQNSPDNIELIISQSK

FRMPD4, Q14CM0 = biological target: FRMPD4, Q14CM0
FRMPD4, Q14CM0, sequence (Q14CM0 67-160): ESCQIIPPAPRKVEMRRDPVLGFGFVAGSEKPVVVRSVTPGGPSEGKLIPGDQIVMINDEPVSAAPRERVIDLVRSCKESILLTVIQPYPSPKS

GORASP2, Q9H8Y8 = biological target: GORASP2, Q9H8Y8
GRID2IP_1, A4D2P6 = biological target: GRID2IP_1, A4D2P6
GRID2IP_1, A4D2P6, sequence (A4D2P6 1-87): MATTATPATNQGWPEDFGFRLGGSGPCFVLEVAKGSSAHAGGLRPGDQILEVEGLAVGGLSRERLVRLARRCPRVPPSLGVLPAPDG

GRIP1_4, Q9Y3R0 = biological target: T4, GRIP1_4, Q9Y3R0
T4 sequence (Q9Y3R0 467-571, limits assumed, looked up): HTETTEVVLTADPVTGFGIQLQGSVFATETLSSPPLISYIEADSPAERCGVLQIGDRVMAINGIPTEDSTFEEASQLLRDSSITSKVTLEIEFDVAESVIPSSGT

GRIP2_3, Q9C0E4 = biological target: GRIP2_3, Q9C0E4
GRIP2_3, Q9C0E4, sequence (Q9C0E4 238-339): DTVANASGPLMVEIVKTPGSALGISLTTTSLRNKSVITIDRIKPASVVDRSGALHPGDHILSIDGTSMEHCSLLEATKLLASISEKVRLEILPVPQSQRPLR

IL16_4, Q14005 = biological target: IL16_4, Q14005
IL16_4, Q14005, sequence (Q14005 1229-1329): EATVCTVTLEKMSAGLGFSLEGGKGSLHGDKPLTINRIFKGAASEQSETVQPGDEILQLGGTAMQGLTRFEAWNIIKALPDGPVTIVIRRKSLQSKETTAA

Inadl_2, Q8NI35 = biological target: Inadl_2, Q8NI35
Inadl_2, Q8NI35, sequence (Q8NI35 238-335): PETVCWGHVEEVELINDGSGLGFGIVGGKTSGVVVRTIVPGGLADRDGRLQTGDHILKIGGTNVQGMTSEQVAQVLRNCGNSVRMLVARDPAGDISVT

LIMK2, P53671 = biological target: LIMK2, P53671
LIMK2, P53671, sequence (P53671 143-248): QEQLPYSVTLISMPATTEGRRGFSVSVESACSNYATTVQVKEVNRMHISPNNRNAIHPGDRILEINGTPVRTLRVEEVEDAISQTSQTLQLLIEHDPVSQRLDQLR

MAGI2_4, Q86UL8 = biological target: MAGI2_4, Q86UL8
MAGI2_4, Q86UL8, sequence (Q86UL8 772-865): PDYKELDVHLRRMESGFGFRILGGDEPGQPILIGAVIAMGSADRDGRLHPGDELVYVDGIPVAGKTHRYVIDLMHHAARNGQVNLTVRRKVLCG

MAGI2_6, Q86UL8 = biological target: MAGI2_6, Q86UL8
MAGI2_6, Q86UL8, sequence (Q86UL8 1141-1229): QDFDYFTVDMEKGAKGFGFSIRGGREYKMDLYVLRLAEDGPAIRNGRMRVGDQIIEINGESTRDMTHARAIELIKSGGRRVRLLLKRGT

MAGI3_2, Q5TCQ9 = biological target: MAGI3_2, Q5TCQ9
MAGI3_2, Q5TCQ9, sequence (Q5TCQ9 398-503): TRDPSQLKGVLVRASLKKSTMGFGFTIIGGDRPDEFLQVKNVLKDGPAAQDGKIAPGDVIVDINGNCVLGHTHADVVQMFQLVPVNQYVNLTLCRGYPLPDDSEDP

MPP2, Q14168 = biological target: T5, MPP2, Q14168
T5 sequence (Q14168 180-250, limits assumed, looked up): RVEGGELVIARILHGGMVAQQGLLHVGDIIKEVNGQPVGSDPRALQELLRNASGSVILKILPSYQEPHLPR

MPP6, Q9NZW5 = biological target: T6, MPP6, Q9NZW5
T6 sequence (Q9NZW5 125-219, limits assumed, looked up): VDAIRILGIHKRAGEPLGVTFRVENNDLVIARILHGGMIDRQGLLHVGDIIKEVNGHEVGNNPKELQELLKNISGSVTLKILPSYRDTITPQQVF

NHERF2_2, Q15599 = biological target: NHERF2_2, Q15599
NHERF2_2, Q15599, sequence (Q15599 142-238): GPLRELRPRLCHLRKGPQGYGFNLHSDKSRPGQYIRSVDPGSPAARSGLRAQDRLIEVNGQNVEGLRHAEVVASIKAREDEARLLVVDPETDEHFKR

NHERF3_3, Q5T2W1 = biological target: T7, NHERF3_3, Q5T2W1
T7 sequence (Q5T2W1 238-333, limits assumed, looked up): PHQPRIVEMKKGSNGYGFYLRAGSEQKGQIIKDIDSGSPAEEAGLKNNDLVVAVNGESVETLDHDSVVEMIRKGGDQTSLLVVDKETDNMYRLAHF

PCLO, Q9Y6V0 = biological target: T8, PCLO, Q9Y6V0
T8 sequence (Q9Y6V0 4491-4600, limits assumed, looked up): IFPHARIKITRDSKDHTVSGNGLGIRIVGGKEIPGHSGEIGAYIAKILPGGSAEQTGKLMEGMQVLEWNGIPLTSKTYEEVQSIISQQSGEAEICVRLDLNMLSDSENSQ

PDLIM1, O00151 = biological target: PDLIM1, O00151
PDLIM1, O00151, sequence (O00151 1-87): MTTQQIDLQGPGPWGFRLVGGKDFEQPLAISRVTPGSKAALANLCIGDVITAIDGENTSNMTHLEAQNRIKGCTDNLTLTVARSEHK

SNTA1, Q13424 = biological target: T9, SNTA1, Q13424
T9 sequence (Q13424 82-180, limits assumed, looked up): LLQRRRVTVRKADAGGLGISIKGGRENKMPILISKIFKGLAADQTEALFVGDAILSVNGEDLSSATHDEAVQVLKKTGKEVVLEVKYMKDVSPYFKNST

TJP2_1, Q9UDY2 = biological target: TJP2_1, Q9UDY2
TJP2_1, Q9UDY2, sequence (Q9UDY2 24-128): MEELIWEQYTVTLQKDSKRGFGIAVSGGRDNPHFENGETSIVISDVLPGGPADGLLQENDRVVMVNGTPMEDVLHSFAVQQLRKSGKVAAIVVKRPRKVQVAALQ

[1] = modified: phospho on S at position -3 from the C-terminal residue
[2] = plain residues with an end cap or a label only (N-terminal biotin on a linker: ado-ado)

## RRVRKLPSTTL [RPS6KA1_-3P, Q15418]
APBA1_2, Q02410; [1]
  pKd: below the threshold
APBA2_2, Q99767; [1]
  pKd: below the threshold
ARHGAP21, Q5T5U3; [1]
  pKd: below the threshold
ARHGEF12, Q9NZN5-2; [1]
  pKd: 3.79
CASK, O14936; [1]
  pKd: below the threshold
DLG1_1, Q12959; [1]
  pKd: 3.69
DLG2_2, Q15700; [1]
  pKd: below the threshold
DLG4_1, P78352; [1]
  pKd: below the threshold
FRMPD2_1, Q68DX3; [1]
  pKd: below the threshold
FRMPD4, Q14CM0; [1]
  pKd: 3.73
GORASP2, Q9H8Y8; [1]
  pKd: 3.56
GRID2IP_1, A4D2P6; [1]
  pKd: below the threshold
GRIP1_4, Q9Y3R0; [1]
  pKd: below the threshold
GRIP2_3, Q9C0E4; [1]
  pKd: below the threshold
IL16_4, Q14005; [1]
  pKd: below the threshold
Inadl_2, Q8NI35; [1]
  pKd: below the threshold
LIMK2, P53671; [1]
  pKd: below the threshold
MAGI2_4, Q86UL8; [1]
  pKd: below the threshold
MAGI2_6, Q86UL8; [1]
  pKd: below the threshold
MAGI3_2, Q5TCQ9; [1]
  pKd: 4.1
MPP2, Q14168; [1]
  pKd: below the threshold
MPP6, Q9NZW5; [1]
  pKd: below the threshold
NHERF2_2, Q15599; [1]
  pKd: 3.68
NHERF3_3, Q5T2W1; [1]
  pKd: below the threshold
PCLO, Q9Y6V0; [1]
  pKd: below the threshold
PDLIM1, O00151; [1]
  pKd: below the threshold
SNTA1, Q13424; [1]
  pKd: 4.4
TJP2_1, Q9UDY2; [1]
  pKd: 3.57

## VISERNSTTV [C3AR1, Q16581]
APBA1_2, Q02410; [2]
  pKd: below the threshold
APBA2_2, Q99767; [2]
  pKd: below the threshold
ARHGAP21, Q5T5U3; [2]
  pKd: 3.96
ARHGEF12, Q9NZN5-2; [2]
  pKd: 4.33
CASK, O14936; [2]
  pKd: below the threshold
DLG1_1, Q12959; [2]
  pKd: 4.44
DLG2_2, Q15700; [2]
  pKd: 4.49
DLG4_1, P78352; [2]
  pKd: 4.58
FRMPD2_1, Q68DX3; [2]
  pKd: below the threshold
FRMPD4, Q14CM0; [2]
  pKd: below the threshold
GORASP2, Q9H8Y8; [2]
  pKd: below the threshold
GRID2IP_1, A4D2P6; [2]
  pKd: below the threshold
GRIP1_4, Q9Y3R0; [2]
  pKd: below the threshold
GRIP2_3, Q9C0E4; [2]
  pKd: below the threshold
IL16_4, Q14005; [2]
  pKd: below the threshold
Inadl_2, Q8NI35; [2]
  pKd: below the threshold
LIMK2, P53671; [2]
  pKd: below the threshold
MAGI2_4, Q86UL8; [2]
  pKd: 4.44
MAGI2_6, Q86UL8; [2]
  pKd: 3.49
MAGI3_2, Q5TCQ9; [2]
  pKd: 4.83
MPP2, Q14168; [2]
  pKd: below the threshold
MPP6, Q9NZW5; [2]
  pKd: below the threshold
NHERF2_2, Q15599; [2]
  pKd: 3.82
NHERF3_3, Q5T2W1; [2]
  pKd: below the threshold
PCLO, Q9Y6V0; [2]
  pKd: below the threshold
PDLIM1, O00151; [2]
  pKd: below the threshold
SNTA1, Q13424; [2]
  pKd: 3.79
TJP2_1, Q9UDY2; [2]
  pKd: below the threshold

## PDGEMMEVLI [AMOTL1, Q8IY63]
APBA1_2, Q02410; [2]
  pKd: below the threshold
APBA2_2, Q99767; [2]
  pKd: below the threshold
ARHGAP21, Q5T5U3; [2]
  pKd: 3.53
ARHGEF12, Q9NZN5-2; [2]
  pKd: below the threshold
CASK, O14936; [2]
  pKd: below the threshold
DLG1_1, Q12959; [2]
  pKd: below the threshold
DLG2_2, Q15700; [2]
  pKd: below the threshold
DLG4_1, P78352; [2]
  pKd: below the threshold
FRMPD2_1, Q68DX3; [2]
  pKd: below the threshold
FRMPD4, Q14CM0; [2]
  pKd: below the threshold
GORASP2, Q9H8Y8; [2]
  pKd: below the threshold
GRID2IP_1, A4D2P6; [2]
  pKd: below the threshold
GRIP1_4, Q9Y3R0; [2]
  pKd: below the threshold
GRIP2_3, Q9C0E4; [2]
  pKd: below the threshold
IL16_4, Q14005; [2]
  pKd: below the threshold
Inadl_2, Q8NI35; [2]
  pKd: 4.27
LIMK2, P53671; [2]
  pKd: below the threshold
MAGI2_4, Q86UL8; [2]
  pKd: below the threshold
MAGI2_6, Q86UL8; [2]
  pKd: below the threshold
MAGI3_2, Q5TCQ9; [2]
  pKd: below the threshold
MPP2, Q14168; [2]
  pKd: below the threshold
MPP6, Q9NZW5; [2]
  pKd: below the threshold
NHERF2_2, Q15599; [2]
  pKd: below the threshold
NHERF3_3, Q5T2W1; [2]
  pKd: below the threshold
PCLO, Q9Y6V0; [2]
  pKd: below the threshold
PDLIM1, O00151; [2]
  pKd: below the threshold
SNTA1, Q13424; [2]
  pKd: below the threshold
TJP2_1, Q9UDY2; [2]
  pKd: below the threshold

## FEEEAEEEVA [TUBB4B, P68371]
APBA1_2, Q02410; [2]
  pKd: below the threshold
APBA2_2, Q99767; [2]
  pKd: below the threshold
ARHGAP21, Q5T5U3; [2]
  pKd: below the threshold
ARHGEF12, Q9NZN5-2; [2]
  pKd: below the threshold
CASK, O14936; [2]
  pKd: below the threshold
DLG1_1, Q12959; [2]
  pKd: below the threshold
DLG2_2, Q15700; [2]
  pKd: below the threshold
DLG4_1, P78352; [2]
  pKd: below the threshold
FRMPD2_1, Q68DX3; [2]
  pKd: below the threshold
FRMPD4, Q14CM0; [2]
  pKd: below the threshold
GORASP2, Q9H8Y8; [2]
  pKd: below the threshold
GRID2IP_1, A4D2P6; [2]
  pKd: below the threshold
GRIP1_4, Q9Y3R0; [2]
  pKd: below the threshold
GRIP2_3, Q9C0E4; [2]
  pKd: below the threshold
IL16_4, Q14005; [2]
  pKd: below the threshold
Inadl_2, Q8NI35; [2]
  pKd: below the threshold
LIMK2, P53671; [2]
  pKd: below the threshold
MAGI2_4, Q86UL8; [2]
  pKd: below the threshold
MAGI2_6, Q86UL8; [2]
  pKd: below the threshold
MAGI3_2, Q5TCQ9; [2]
  pKd: below the threshold
MPP2, Q14168; [2]
  pKd: 3.77
MPP6, Q9NZW5; [2]
  pKd: below the threshold
NHERF2_2, Q15599; [2]
  pKd: below the threshold
NHERF3_3, Q5T2W1; [2]
  pKd: below the threshold
PCLO, Q9Y6V0; [2]
  pKd: below the threshold
PDLIM1, O00151; [2]
  pKd: below the threshold
SNTA1, Q13424; [2]
  pKd: below the threshold
TJP2_1, Q9UDY2; [2]
  pKd: below the threshold
